Data taken from patent publication US7897573B2, “Selective VPAC2 receptor peptide agonists” (priority 2005, dated 2011).

Tests used:
Human VPAC2 Receptor [1] = molecular target: T1, Human VPAC2 Receptor (Homo sapiens, UniProt P41587); assay: Alpha screen cAMP potency at human VPAC2 receptor; format: cell-based; settings: cAMP generation; read-out: Human VPAC2 Receptor: Alphascreen (EC50; nM)
T1 sequence (P41587 24-438): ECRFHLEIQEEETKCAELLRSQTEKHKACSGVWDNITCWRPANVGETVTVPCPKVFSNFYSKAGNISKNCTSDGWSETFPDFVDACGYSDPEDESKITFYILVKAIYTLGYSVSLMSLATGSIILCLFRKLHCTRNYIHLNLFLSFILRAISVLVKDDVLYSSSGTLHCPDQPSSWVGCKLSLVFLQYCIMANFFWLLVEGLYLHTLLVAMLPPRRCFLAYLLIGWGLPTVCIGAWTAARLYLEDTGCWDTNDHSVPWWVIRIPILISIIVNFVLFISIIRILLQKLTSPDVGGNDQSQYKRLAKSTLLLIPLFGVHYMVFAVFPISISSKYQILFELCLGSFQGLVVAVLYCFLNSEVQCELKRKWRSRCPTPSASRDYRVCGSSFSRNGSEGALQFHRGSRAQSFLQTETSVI
Description: Alpha screen: Cells are washed in the culture flask once with PBS. Then, the cells are rinsed with enzyme free dissociation buffer. The dissociated cells are removed. The cells are then spun down and washed in stimulation buffer. For each data point, 50,000 cells suspended in stimulation buffer are used. To this buffer, Alpha screen acceptor beads are added along with the stimuli. This mixture is incubated for 60 minutes. Lysis buffer and Alpha screen donor beads are added and are incubated for 60 to 120 minutes. The Alpha screen signal (indicative of intracellular cAMP levels) is read in a suitable instrument (e.g. AlphaQuest from Perkin-Elmer). Steps including Alpha screen donor and acceptor beads are performed in reduced light. The EC50 for cAMP generation is calculated from the raw signal or is based on absolute cAMP levels as determined by a standard curve performed on each plate.
The tested peptide concentrations are: 10000, 1000, 100, 10, 3, 1, 0.1, 0.01, 0.003, 0.001, 0.0001 and 0.00001 nM.

Human VPAC2 Receptor [2] = molecular target: T1, Human VPAC2 Receptor; assay: Filter binding assay, 125I-labeled VIP, membranes of stable VPAC2 cell line; settings: 125I-labeled VIP tracer
Description: For this assay, the solutions and equipment include:
Presoak solution: 0.5% Polyethyleneamine in Aqua dest
Buffer for flushing filter plates: 25 mM HEPES pH 7.4
Blocking buffer: 25 mM HEPES pH 7.4; 0.2% protease free BSA
Assay buffer: 25 mM HEPES pH 7.4; 0.5% protease free BSA
Dilution and assay plate: PS-Microplate, U form
Filtration Plate Multiscreen FB Opaque Plate; […] Type B Glasfiber filter
In order to prepare the filter plates, the presoak solution is aspirated by vacuum filtration. The plates are flushed twice with 200 μL flush buffer. 200 μL blocking buffer is added to the filter plate. The filter plate is then incubated with 200 μL presoak solution for 1 hour at room temperature.
The assay plate is filled with 25 μL assay buffer, 25 μL membranes (2.5 μg) suspended in assay buffer, 25 μL agonist in assay buffer, and 25 μL tracer (about 40000 cpm) in assay buffer. The filled plate is incubated for 1 hour with shaking.
The transfer from assay plate to filter plate is conducted. The blocking buffer is aspirated by vacuum filtration and washed two times with flush buffer. 90 μL is transferred from the assay plate to the filter plate. The 90 μL transferred from assay plate is aspirated and washed three times with 200 μL flush buffer. The plastic support is removed. It is dried for 1 hour at 60° C. 30 μL Microscint is added. The count is performed.

Rat VPAC2 Receptor = molecular target: T2, Rat VPAC2 Receptor (Rattus norvegicus, UniProt P35000); assay: DiscoveRx cAMP potency, CHO-PO cells transiently transfected with rat VPAC2 receptor; format: cell-based; settings: cAMP generation
T2 construct: expressed in transfected cells; host or cells: CHO-PO (transient, Lipofectamine)
T2 sequence (P35000 23-437): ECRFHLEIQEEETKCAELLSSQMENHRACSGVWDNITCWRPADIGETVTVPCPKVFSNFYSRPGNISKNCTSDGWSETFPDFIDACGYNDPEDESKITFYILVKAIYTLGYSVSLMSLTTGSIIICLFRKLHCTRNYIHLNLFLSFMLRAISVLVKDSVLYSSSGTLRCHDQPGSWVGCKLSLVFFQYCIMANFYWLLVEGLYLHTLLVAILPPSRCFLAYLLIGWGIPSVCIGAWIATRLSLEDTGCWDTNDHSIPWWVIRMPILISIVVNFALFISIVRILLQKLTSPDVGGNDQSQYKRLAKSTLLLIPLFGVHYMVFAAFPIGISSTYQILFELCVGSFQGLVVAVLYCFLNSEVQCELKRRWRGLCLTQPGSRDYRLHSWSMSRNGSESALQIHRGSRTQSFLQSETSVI
Description: (§1) DiscoveRx: CHO-PO cells are transiently transfected with rat VPAC1 or VPAC2 receptor DNA using commercially available transfection reagents (Lipofectamine from Invitrogen). The cells are seeded at a density of 10,000/well in a 96-well plate and are allowed to grow for 3 days in […] culture medium At day 3, the assay is performed.
(§2) On the day of the experiment, the medium is removed. Also, the cells are washed twice. The cells are incubated in assay buffer plus IBMX for 15 minutes at room temperature. Afterwards, the stimuli are added and are dissolved in assay buffer. The stimuli are present for 30 minutes. Then, the assay buffer is gently removed. The cell lysis reagent of the DiscoveRx cAMP kit is added. Thereafter, the standard protocol for developing the cAMP signal as described by the manufacturer is used (DiscoveRx Inc., USA). EC50 values for cAMP generation are calculated from the raw signal or are based on absolute cAMP levels as determined by a standard curve performed on each plate.
(§3) Results for each agonist are the mean of two independent runs. Rat VPAC1 and VPAC2 results are only generated using the DiscoveRx assay.

Rat VPAC1 Receptor = molecular target: T3, Rat VPAC1 Receptor (Rattus norvegicus, UniProt P30083); assay: DiscoveRx cAMP potency, CHO-PO cells transiently transfected with rat VPAC1 receptor; format: cell-based; settings: cAMP generation
T3 construct: expressed in transfected cells; host or cells: CHO-PO (transient, Lipofectamine)
T3 sequence (P30083 31-459): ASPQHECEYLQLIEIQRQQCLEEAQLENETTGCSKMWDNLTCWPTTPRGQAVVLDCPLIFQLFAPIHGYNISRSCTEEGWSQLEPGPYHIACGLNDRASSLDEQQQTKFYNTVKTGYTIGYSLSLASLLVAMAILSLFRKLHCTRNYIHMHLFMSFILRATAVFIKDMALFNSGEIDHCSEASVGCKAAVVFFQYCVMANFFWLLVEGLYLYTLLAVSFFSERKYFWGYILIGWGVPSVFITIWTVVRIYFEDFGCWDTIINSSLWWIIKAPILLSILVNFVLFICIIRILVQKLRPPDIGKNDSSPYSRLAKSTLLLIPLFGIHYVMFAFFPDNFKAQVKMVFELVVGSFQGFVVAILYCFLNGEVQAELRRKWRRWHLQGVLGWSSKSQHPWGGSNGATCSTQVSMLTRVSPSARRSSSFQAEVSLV
Description: as §1, §2, §3

Row | Substance | EC50 (Human VPAC2 Receptor [1]) | IC50 (Human VPAC2 Receptor [2]) | EC50 (Rat VPAC2 Receptor) | EC50 (Rat VPAC1 Receptor)
1 | C6-HSDAVFTEK(CO(CH2)2SPEG40K)Y(OMe)TOrnLRAibQVAAAibOrnYLQSIOrnOrnGGPSSGAPPPS-NH2 (HSDAVFTEXYTXLRXQVAAXXYLQSIXXGGPSSGAPPPS; C6 acyl; PEG40K; non-natural residues; amide; Synthetic sequence PEGylated VPAC2 receptor peptide agonist) [Agonist P451] | 68.6 nM | 596 nM |  | 
2 | C6-HSDAVFTEQY(OMe)TOrnLRAibQC(PEG40K)AAbuAibOrnY(OMe)LQAibIOrnOrnGGPSSGAPPPS-NH2 (HSDAVFTEQYTXLRXQCAXXXYLQXIXXGGPSSGAPPPS; C6 acyl, non-natural residues, PEG40K, C-terminal amide; Synthetic sequence PEGylated VPAC2 receptor agonist) [Agonist P578] | 205 nM |  | 306 nM | 269 nM
3 | C6-HSDAVFTEQY(OMe)TOrnLRAibQC(PEG40K)AAbuAibOrnY(OMe)LQSIOrnOrnGGPSSGAPPPS-NH2 (HSDAVFTEQYTXLRXQCAXXXYLQSIXXGGPSSGAPPPS; C6 acyl, non-natural residues, PEG40K, C-terminal amide; Synthetic sequence PEGylated VPAC2 receptor agonist) [Agonist P586] | 122 nM |  | 187 nM | 502 nM
4 | C6-HSDAVFTEQY(OMe)TOrnLRAibQK(WPEG40K)AAAibOrnYLQSIOrnOrnGGPSSGAPPPS-NH2 (HSDAVFTEQYTXLRXQXAAXXYLQSIXXGGPSSGAPPPS; C6 acyl, PEG40K on Lys, C-terminal amide; Synthetic sequence PEGylated VPAC2 receptor agonist) [Agonist P533] |  | 959 nM |  | 
5 | C6-HSDAVFTEQY(OMe)TOrnLRAibQLAAbUAibOrnY(OMe)LQAibIOrnC(PEG40K)OrnGGPSSGAPPPS-NH2 (HSDAVFTEQYTXLRXQLAXXXYLQXIXCXGGPSSGAPPPS; C6 acyl, non-natural residues, PEG40K, C-terminal amide; Synthetic sequence PEGylated VPAC2 receptor agonist) [Agonist P576] | 55 nM |  | 67.4 nM | 461 nM
6 | C6-HSDAVFTEQY(OMe)TOrnLRAibQLAAbuAibOrnY(OMe)LQSIOrnC(PEG20K)OrnGGPSSGAPPPC(PEG20K)-NH2 (HSDAVFTEQYTXLRXQLAXXXYLQSIXCXGGPSSGAPPPC; C6 acyl, non-natural residues, two PEG20K, C-terminal amide; Synthetic sequence PEGylated VPAC2 receptor agonist) [Agonist P588] | 54 nM |  | 311 nM | 406 nM
7 | C6-HSDAVFTEQY(OMe)TOrnLRAibQLAAbuAibOrnY(OMe)LQSIOrnC(PEG40K)OrnGGPSSGAPPPS-NH2 (HSDAVFTEQYTXLRXQLAXXXYLQSIXCXGGPSSGAPPPS; C6 acyl, non-natural residues, PEG40K, C-terminal amide; Synthetic sequence PEGylated VPAC2 receptor agonist) [Agonist P584] | 51.2 nM |  | 67.2 nM | 188 nM
8 | C6-HSDAVFTEQY(OMe)TOrnLRAibQVAAAibOrnYAibQSIOrnOrnGGPSSGAPPPC(PEG40K)-NH2 (HSDAVFTEQYTXLRXQVAAXXYXQSIXXGGPSSGAPPPC; C6 acyl, PEG40K on Cys, C-terminal amide; Synthetic sequence PEGylated VPAC2 receptor agonist) [Agonist P507] | 27.1 nM |  | 94.9 nM | > 1000 nM
